Results as given in paper PMC11883000 (2025).
Like-named read-outs stand apart in the source and are kept apart here. Ends that are not written are not given here. Me2 = dimethylation (dimethyl-lysine); Me3 = trimethyl on lysine side chain

T1: ASH1L plant homeodomain (PHD) finger, wild type (aa 2579-2629) (human, UniProt Q9NR48 2579-2629)
T1 chain: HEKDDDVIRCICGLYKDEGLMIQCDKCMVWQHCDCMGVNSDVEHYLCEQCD

T2: ASH1L PHD finger Y2693K (human, UniProt Q9NR48 2579-2629)
T2 chain: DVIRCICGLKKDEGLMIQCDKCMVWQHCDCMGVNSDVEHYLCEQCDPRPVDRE

T3: ASH1L PHD finger-BAH domain (human, UniProt Q9NR48 2579-2834)
T3 chain: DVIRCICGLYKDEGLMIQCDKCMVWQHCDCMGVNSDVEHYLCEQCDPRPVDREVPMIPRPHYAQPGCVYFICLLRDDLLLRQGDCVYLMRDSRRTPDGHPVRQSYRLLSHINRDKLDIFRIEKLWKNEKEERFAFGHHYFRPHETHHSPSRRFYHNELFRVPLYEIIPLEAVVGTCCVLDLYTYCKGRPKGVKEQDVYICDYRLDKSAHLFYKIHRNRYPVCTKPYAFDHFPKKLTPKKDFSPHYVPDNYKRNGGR


What was measured:
ASH1L PHD finger D2595A = ASH1L PHD finger D2595A (human, UniProt Q9NR48 2579-2629, Substitution of D2595 with alanine)
[1] = biological target: T1, ASH1L plant homeodomain (PHD) finger, …
ASH1L PHD finger D2603A = ASH1L PHD finger D2603A (human, UniProt Q9NR48 2579-2629, D2603A)
ASH1L PHD finger Y2693K = biological target: T2, ASH1L PHD finger Y2693K
ASH1L PHD finger Q2601K = ASH1L PHD finger Q2601K (human, UniProt Q9NR48 2579-2629, Q2601K)
ASH1L PHD finger D2584A = ASH1L PHD finger D2584A (human, UniProt Q9NR48 2579-2629, Substitution of D2584 with alanine)
ASH1L PHD finger S2618A = ASH1L PHD finger S2618A (human, UniProt Q9NR48 2579-2629, S2618A)
[2] = biological target: T1, ASH1L plant homeodomain (PHD) finger, …; assay: MST
[3] = biological target: T3, ASH1L PHD finger-BAH domain

Row | Kd (ASH1L PHD finger D2595A) [nM] | Kd [1] [nM] | Kd (ASH1L PHD finger D2603A) [nM] | Kd (ASH1L PHD finger Y2693K) [nM] | Kd (ASH1L PHD finger Q2601K) [nM] | Kd (ASH1L PHD finger D2584A) [nM] | Kd (ASH1L PHD finger S2618A) [nM] | Kd [2] [nM] | Kd [3] [nM] | Binder
1 | 6700 | 1600 | 2000 | 1800 | 1000 | 4600 | 5900 | 1100 | 1000 | ARTK(Me3)QTARKSTG [histone H3K4me3 peptide (aa 1-12 of H3)]
2 | – | 1000 | – | – | – | – | – | – | – | ARTK(Me2)QTARKSTG [histone H3K4me2 peptide (aa 1-12 of H3)]
